This is an account of results in patent publication US20100143268A1, “Formulations for Delivery Via Pressurised Metered Dose Inhalers Comprising an Essential Oil as Suspension Stabiliser” (priority 2006, published 2010).

The nature of series [1]: Integrity of insulin by GPC, HPLC, circular dichroism and fluorescence spectroscopy. It is filed as physicochemical. As to the method: The formulations were also assessed for the integrity of insulin using gel permeation chromatography (GPC), high performance liquid chromatography (HPLC), circular dichroism and fluorescence spectroscopy.
The conditions of series [2]: Tong et al, Pharm. Res. (2001) 18, 852-858; cited from earlier work.

A word on the aqueous solubility: it is the dissolved amount per volume that the medium holds.

On to insulin, for which the “chemical degradation of insulin during the formulation process” value in series [1] (GPC and HPLC chromatograms compared to standard insulin) is on record as “not chemically degraded”. Moreover, the “secondary structures of insulin after processing” value in series [1] (far-UV circular dichroism, from the nanoparticles after delivery from the pMDI vs unprocessed control) is “retained”. Also, in series [1] (near-UV CD, peak around 275 nm, confirmed by fluorescence spectra), the “tertiary structures of insulin after processing” value is “retention”.
Turning to `OCc1cc(C(O)CNCCCCCCOCCCCc2ccccc2)ccc1O` (stereo not shown) [SX, Salmeterol Xinafoate], in series [2], the aqueous solubility is 66 to 81 µg/mL.
